# According to WO2023190852A1:
# Biological target: RBD derived from the Omicron strain (BA.1 strain; B.1.1.529) (SARS-CoV-2)
row,Substance,binding inhibition rate (%)
1,ADG2 (antibody),< 80%
2,AZD1061 (antibody),< 80%
3,AZD8895 (antibody),< 80%
4,LY_CoV16 (antibody),< 80%
5,LY_CoV555 (antibody),< 80%
6,REGN10933 (antibody),< 80%
7,REGN10987 (antibody),< 80%
8,S309 (antibody),< 80%
